Assay results taken from US20230272086A1 (CHIA TAI TIANQING PHARMACEUTICAL GROUP, published 2023).

T1: IL1R1/CD121a (Sino biological, 10126-H08H) (UniProt P14778 18-332)
T1 construct: Bought protein
T1 sequence (looked up): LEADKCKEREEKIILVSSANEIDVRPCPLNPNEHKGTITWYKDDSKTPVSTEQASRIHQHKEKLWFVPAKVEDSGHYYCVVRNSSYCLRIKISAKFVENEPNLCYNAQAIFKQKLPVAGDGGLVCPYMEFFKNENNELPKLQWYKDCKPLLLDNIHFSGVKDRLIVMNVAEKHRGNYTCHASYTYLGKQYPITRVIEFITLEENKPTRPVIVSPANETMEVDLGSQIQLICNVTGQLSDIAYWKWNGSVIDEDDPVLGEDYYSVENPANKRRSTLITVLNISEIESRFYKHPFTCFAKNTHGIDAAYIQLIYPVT

T2: IL1R2/CD121b (Sino biological, 10111-H08H) (UniProt P27930 14-343)
T2 construct: Bought protein
T2 sequence (looked up): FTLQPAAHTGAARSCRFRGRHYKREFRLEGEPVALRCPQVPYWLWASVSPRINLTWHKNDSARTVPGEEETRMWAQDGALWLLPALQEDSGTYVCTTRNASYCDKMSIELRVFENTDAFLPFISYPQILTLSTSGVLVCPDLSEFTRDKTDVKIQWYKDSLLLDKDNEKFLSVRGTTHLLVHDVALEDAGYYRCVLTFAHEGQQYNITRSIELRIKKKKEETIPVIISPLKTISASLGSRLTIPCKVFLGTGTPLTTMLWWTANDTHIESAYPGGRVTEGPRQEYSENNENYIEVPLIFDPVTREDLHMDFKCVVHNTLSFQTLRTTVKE

T3: IL1R3/IL1RAP (Sino biological, 10121-H08H) (UniProt Q9NPH3 21-359)
T3 construct: Bought protein
T3 sequence (looked up): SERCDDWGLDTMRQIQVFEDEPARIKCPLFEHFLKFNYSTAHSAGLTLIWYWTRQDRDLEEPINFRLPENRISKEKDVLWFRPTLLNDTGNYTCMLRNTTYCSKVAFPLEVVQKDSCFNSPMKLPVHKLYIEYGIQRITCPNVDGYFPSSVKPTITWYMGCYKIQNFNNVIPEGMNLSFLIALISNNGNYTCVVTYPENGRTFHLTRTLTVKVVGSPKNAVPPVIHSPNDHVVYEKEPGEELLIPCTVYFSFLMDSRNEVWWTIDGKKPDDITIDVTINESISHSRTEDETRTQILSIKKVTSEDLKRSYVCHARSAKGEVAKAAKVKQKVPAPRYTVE

T4: IL1R9/IL1RAPL2 (Sino biological, 10156-H08H) (UniProt Q9NP60 17-354)
T4 construct: Bought protein
T4 sequence (looked up): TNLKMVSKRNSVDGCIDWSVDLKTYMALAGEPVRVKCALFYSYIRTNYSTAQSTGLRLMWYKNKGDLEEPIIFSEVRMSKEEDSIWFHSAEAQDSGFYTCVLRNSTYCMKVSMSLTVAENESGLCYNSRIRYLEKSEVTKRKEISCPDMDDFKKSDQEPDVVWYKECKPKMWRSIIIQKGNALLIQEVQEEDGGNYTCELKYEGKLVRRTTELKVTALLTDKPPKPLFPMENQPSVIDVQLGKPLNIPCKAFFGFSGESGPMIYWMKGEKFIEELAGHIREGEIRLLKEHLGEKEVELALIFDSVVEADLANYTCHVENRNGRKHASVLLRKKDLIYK

T5: IL1R8/IL1RAPL1 (Sino biological, 10177-H08H) (UniProt Q9NZN1 19-357)
T5 construct: Bought protein
T5 sequence (looked up): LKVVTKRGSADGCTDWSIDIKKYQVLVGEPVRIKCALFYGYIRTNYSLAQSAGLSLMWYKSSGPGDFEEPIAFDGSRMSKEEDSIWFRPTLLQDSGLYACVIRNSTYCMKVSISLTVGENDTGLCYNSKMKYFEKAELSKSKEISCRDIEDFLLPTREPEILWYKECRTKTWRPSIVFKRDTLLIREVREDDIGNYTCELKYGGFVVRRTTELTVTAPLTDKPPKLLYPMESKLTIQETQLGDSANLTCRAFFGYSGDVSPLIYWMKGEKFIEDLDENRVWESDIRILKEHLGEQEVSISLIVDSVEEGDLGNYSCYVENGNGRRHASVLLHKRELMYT


Experiments:
Test in all cases: ELISA, plate coated with 2 µg/mL receptor
[1] = target: T1, IL1R1/CD121a (Sino biological, …)
Protocol: (§1) The anti-ST2 antibodies were diluted with PBS buffer to a concentration of 1.5 mg/mL. After being treated at 72° C. for 5 min, the samples were assayed by ELISA for their binding activity for an antigen The ELISA procedure is as follows: A 96-well plate was coated with 2 µg/mL hST2-ECD-mFc as the antigen at 100 µL/well and incubated at 4° C. overnight. After the antigen not adsorbed was well washed off, the non-specific binding sites were blocked with a blocking buffer (PBST containing 1% bovine serum albumin). After the plate was washed three times with a washing buffer (PBST, PBS containing 0.05% (v/v) Tween 20), the anti-ST2 antibodies (serially diluted 3-fold from an initial concentration of 1.5 µg/mL to 8 concentrations) were added at 100 µL/well, and the plate was incubated at 37° C. for 1 h. […] After the plate was incubated at room temperature for 5 min, a stop solution (2 N H₂SO₄) was added to stop the reactions. The signals were read at 450 nm using a plate reader (PE, Envision). The data were analyzed using GraphPad Prism5, and the EC₅₀ values were calculated.
(§2) ST2 belongs to the IL1R receptor family. The cross-reactivity of the anti-ST2 antibodies with the IL1R family receptors was determined by ELISA. The IL1R family receptors include IL1R⅟CD121a (Sino biological, 10126-H08H), IL1R2/CD121b (Sino biological, 10111-H08H), IL1R3/IL1RAP (Sino biological, 10121-H08H), IL1R7/IL-18RAcP (Sino biological, 10176-H08H), IL1R8/IL1RAPL1 (Sino biological, 10177-H08H), and IL1R9/IL1RAPL2 (Sino biological, 10156-H08H). ELISA assays were performed using the proteins described above as antigens (2 µg/mL). See Example 13 for the specific ELISA procedure. No binding means that the antibody remains unbound to the antigen when at the highest concentration.

[2] = target: T2, IL1R2/CD121b (Sino biological, …)
Protocol: as §1, §2

[3] = target: T3, IL1R3/IL1RAP (Sino biological, …)
Protocol: as §1, §2

[4] = target: T4, IL1R9/IL1RAPL2 (Sino biological, …)
Protocol: as §1, §2

[5] = target: T5, IL1R8/IL1RAPL1 (Sino biological, …)
Protocol: as §1, §2

Row | Binder | binding result [1] | binding result [2] | binding result [3] | binding result [4] | binding result [5]
1 | RG6149 (antibody Ab2 in CN104334582, prepared in-house) (antibody, human IgG2, kappa, V domains shown, Control anti-ST2 antibody) VH: EVQLVQSGAEVKKPGESLKISCKGSGYSFTNYWIGWVRQMPGKGLEWMGIIYPGNSDTRFSPSFQGQVTISADKSITTAYLQWSSLKASDTAMYYCARHGTSSDYYGLDVWGQGTTVTVSS VL: not shown | no binding | no binding | no binding | no binding | no binding
2 | Humanized 31C8-1.1 (antibody, human IgG2, kappa, V domains shown, also called hz31C8-1.1; hz31C81-1.1) VH: EVQLVQSGAEVKKPGATVKISCKASGYIFIDSEMHWVQQAPGKGLEWMGAIDPETGDTVYAEKFQGRVTITADKSSSTAYMELSSLRSEDTAVYYCTGSTTDYYFAYWGQGTLVTVSS VL: DIQMTQSPSSLSASVGDRVTITCRSSKSLLHSNGIIYLYWYQQKPGKAPKLLIYQLSNLASGVPSRFSSSGSGTDFTLTISSLQPEDFATYYCAQNLELPFTFGQGTKVEIKR | no binding | no binding | no binding | no binding | no binding
3 | Humanized 31C8-1.2 (antibody, human IgG2, kappa, V domains shown, also called hz31C8-1.2; hz31C81-1.2) VH: QVQLVQSGAKVKKPGATVKISCKASGYIFIDSEMHWVQQAPGKGLEWMGAIDPETGDTVYAKKFKGRVTITADKSSSTAYMELSSLRSEDTAVYYCTGSTTDYYFAYWGQGTLVTVSS VL: DIQMTQSPSSLSASVGDRVTITCRSSKSLLHSNGIIYLYWYQQKPGKAPKLLIYQLSNLASGVPSRFSSSGSGTDFTLTISSLQPEDFATYYCAQNLELPFTFGQGTKVEIKR | no binding | no binding | no binding | no binding | no binding

Results, then the binder that gave them:

Row | binding result [1] | binding result [2] | binding result [3] | binding result [4] | binding result [5] | Binder
4 | no binding | no binding | no binding | no binding | no binding | Chimeric 31C8 (antibody, human IgG2, kappa, V domains shown, also called xi31C8) VH: QVQLQQSGPELVRPGASVTLSCKASGYIFIDSEMHWVKQTPVHGLEWIGAIDPETGDTVYNQKFKGKATLTADKSSSTASMELSSLTSEDSAVYYCTGSTTDYYFAYWGQGTTLTVSS VL: DIVMTQAAFSNPVTLGTSASISCRSSKSLLHSNGIIYLYWYLQKPGQSPQLLIYQMSNLASGVPDRFSSSGSGTDFTLRISRVEAEDVGVYYCAQNLELPFTFGSGTKLEIKR
5 | no binding |  | no binding | no binding | no binding | GSK3772847 (antibody STLM208 in CN104411333, prepared in-house) (antibody, human IgG2, kappa, V domains shown, Control anti-ST2 antibody) VH: EVQLLESGGGLVQPGGSLRLSCAASGFTFSIYDMIWVRQAPGKGLEWVSSIRGEGGGTYYADSVKGRFTISRDNSKNTLYLQMNSLRAEDTAVYYCARDPWSTEGSFFVLDYWGQGTLVTVSS VL: EIVLTQSPATLSLSPGERATLSCRASQSVDDDLAWYQQKPGQAPRLLIYDASNRATGIPARFSGSGSGTDFTLTISSLEPEDFAVYYCQQYITAPLTFGQGTKVEIKR
